Source: patent US20230009582A1 (MEMO THERAPEUTICS, published 2023)

What was measured:
[1] = molecular target: T1, Siglec-5-Fc (R&D systems) (UniProt O15389 17-434, limits assumed); assay: ELISA, coated Siglec-5-Fc 1 µg/ml, single antibody concentration, anti-human Fab detection, Abs 450 nm, n=3
T1 construct: Bought reagent; not shown: Fc part of the bought fusion; not described
T1 sequence (looked up): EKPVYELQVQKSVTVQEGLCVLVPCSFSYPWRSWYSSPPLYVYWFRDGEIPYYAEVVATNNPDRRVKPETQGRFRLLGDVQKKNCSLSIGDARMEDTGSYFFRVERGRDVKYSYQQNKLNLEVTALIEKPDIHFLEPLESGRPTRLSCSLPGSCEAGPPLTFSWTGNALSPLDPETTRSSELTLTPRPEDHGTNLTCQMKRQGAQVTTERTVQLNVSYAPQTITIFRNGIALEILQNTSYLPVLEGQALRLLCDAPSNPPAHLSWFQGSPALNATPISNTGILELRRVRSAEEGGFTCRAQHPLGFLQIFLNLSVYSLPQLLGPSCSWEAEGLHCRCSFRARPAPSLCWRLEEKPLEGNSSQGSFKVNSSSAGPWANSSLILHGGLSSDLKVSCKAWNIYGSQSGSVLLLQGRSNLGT
Experimental: (§1) Specificity towards Siglec-5, Siglec-7, Siglec-8, Siglec-15 and Siglec-9 was assayed in enzyme-linked immunosorbent assay (ELISA) using 96 well half-area ELISA plates (Corning). Siglec-5-Fc (R&D systems), Siglec-7-Fc (in-house production, Siglec-7-Fc protein used had the following amino acid sequence:
(§2) (SEQ ID NO: 59)) […] […] […] […] […] […] […] […] […] […] […] […], Siglec-8-Fc (R&D systems), Siglec-15- Fc (R&D systems) and Siglec-9-Fc (in-house production, SEQ ID NO: 11) were coated at 1 μg/ml in 50 mM carbonate-bicarbonate buffer pH 9.6 for 15-20 hours at 4° C.
(§3) Antigens were washed away (Tecan Hydrospeed) and plates were blocked with 5% skimmed milk in phosphate-buffered saline (PBS). After washing the plates, antibodies were added at 5 μg/ml (33 nM) in 0.5% milk PBS in triplicates. Plates with antibodies were incubated for 1 hour at room temperature. Plates were washed and bound antibodies were detected by horseradish peroxidase (HRP)-labeled polyclonal anti-rabbit IgG antibody (Biolegend) or anti-human Fab fragment for mAbA (Sigma Aldrich). 3,3′,5,5′-Tetramethylbenzidine (TMB; Sigma Aldrich) development was stopped by addition of sulfuric acid and absorbance was detected at 450 nm (Tecan, CM […] MONO 200).

[2] = molecular target: T2, Siglec-9 expressed on cells (human, UniProt Q9Y336 18-463); assay: flow cytometry on human CD14+ monocytes (PBMC), mean RFU of the anti-human secondary antibody, three-parameter fit
T2 construct: also called monocyte-expressed Siglec-9
Experimental: Human ex vivo PBMC were stained with fluorescence-labeled (allophycocyanin, APC) antibody to the monocyte marker CD14 (Biolegend) in assay buffer (0.5% (v/v) heat-inactivated fetal bovine serum (Gibco), 2 mM EDTA in phosphate-buffered saline). Subsequently, cells were incubated with antibodies under evaluation at various concentrations (67 nM-0.38 pM). After a washing step cells were incubated with fluorescence-labeled (Brilliant Violet 421™) secondary antibody against human IgG (mAbA) or rabbit IgG (all other monoclonal antibodies under evaluation; both secondary antibodies from Biolegend).
Binding of Siglec-9-specific antibodies to monocytes (CD14-positive life cells) was analysed with a CytoFLEX flow cytometer (Beckham Coulter's). The mean fluorescence intensity of the secondary antibody staining in the CD14-positive population at each dilution was determined using Flow Jo software (BD). Datapoints generated by this analysis were fitted and EC50 values were determined by three-parameter analysis in GraphPad Prism (GraphPad Software)

[3] = molecular target: T3, Siglec-8-Fc (R&D systems) (UniProt Q9NYZ4 17-363, limits assumed); assay: ELISA, coated Siglec-8-Fc 1 µg/ml, single antibody concentration, anti-human Fab detection, Abs 450 nm, n=3
T3 construct: Bought reagent; not shown: Fc part of the bought fusion; not described
Experimental: as §1, §2, §3

T3 sequence (Q9NYZ4 17-363 limits assumed): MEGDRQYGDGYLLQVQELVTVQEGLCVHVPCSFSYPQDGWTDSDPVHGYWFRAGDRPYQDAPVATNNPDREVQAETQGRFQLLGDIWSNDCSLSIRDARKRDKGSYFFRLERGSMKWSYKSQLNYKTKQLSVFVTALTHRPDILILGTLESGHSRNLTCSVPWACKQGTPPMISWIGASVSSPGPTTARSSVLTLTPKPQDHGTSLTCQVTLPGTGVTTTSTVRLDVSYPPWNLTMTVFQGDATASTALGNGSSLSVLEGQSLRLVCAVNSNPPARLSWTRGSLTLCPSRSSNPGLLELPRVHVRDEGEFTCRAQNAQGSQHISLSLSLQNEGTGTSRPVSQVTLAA
T2 sequence (Q9Y336 18-463 limits assumed): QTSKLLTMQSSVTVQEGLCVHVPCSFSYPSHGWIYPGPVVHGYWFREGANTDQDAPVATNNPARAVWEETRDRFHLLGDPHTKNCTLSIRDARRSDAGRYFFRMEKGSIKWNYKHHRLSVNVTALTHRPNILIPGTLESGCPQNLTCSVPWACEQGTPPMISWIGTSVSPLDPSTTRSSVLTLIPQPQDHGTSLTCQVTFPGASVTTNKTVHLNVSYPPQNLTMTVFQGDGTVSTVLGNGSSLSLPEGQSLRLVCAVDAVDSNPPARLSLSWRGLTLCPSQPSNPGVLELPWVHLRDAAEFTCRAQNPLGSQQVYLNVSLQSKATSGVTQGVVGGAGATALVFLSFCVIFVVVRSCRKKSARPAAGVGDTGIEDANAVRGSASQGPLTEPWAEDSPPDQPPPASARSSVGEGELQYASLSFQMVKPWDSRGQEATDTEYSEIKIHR

binding result [1]: no binding (tested: 5 µg/ml)
EC50 [2]: 0.58 nM
binding result [3]: no binding (tested: 5 µg/ml)
B1: comparative monoclonal antibody mAbA (WO 2017/153433), mouse-human chimera (antibody, human IgG1, kappa, V domains shown)
VH: QVQLQQPGAELVKPGSPVKLSCKASYFTFTSYWMHWVRQRPGQGLEWIGEINPSNGHTNYNEKFESKATLTVDRSSSTAYMQLSSLTSEDSAVFYCANGVESYDFDDALDYWGQGTSVTVSS
VL: DIQMTQTTSSLSASLGDRVTISCRASQDINNYLNWYQQKPDGTIKLLIYYTSRLHSGVPSRFSGSGSGTDYSLTINNLEQEDIATYFCQQGNTLPFTFGGGTKLEIKR
